From patent US9695228B2, “EGFR and c-Met fibronectin type III domain binding molecules” (Janssen Biotech, Inc., priority 2012, dated 2017)
Several values for one entry are separate records, joined by “and”; a condition that tells them apart may be missing. Equal values may be shown once. Entries after “also recorded” stand apart in the source; their conditions may differ. Read-outs that look alike come from different tables or passages of the source.

Tests used:
[1] = Differential scanning calorimetry in PBS (thermal stability); format: physicochemical; settings: DSC in PBS, c-Met-binding FN3 domains
[2] = system: NCI-H292 cells expressing human HGF, xenograft; assay: Tumor efficacy study with bispecific molecules of variable affinity, H292-HGF xenograft; format: in vivo, mice; settings: 25 mg/kg three times per week, FIG. 8
Method: One week after implantation, mice were stratified into groups with equivalent tumor volumes (mean tumor volume=77.9+/−1.7 mm^3). Mice were dosed three times per week with the bispecific molecules and tumor volumes were recorded twice weekly.

[3] = system: H292-HGF human lung cancer xenograft; format: in vivo
Method: The H292-HGF cells were maintained in vitro in RPMI1640 medium supplemented with fetal bovine serum (10% v/v), and L-glutamine (2 mM) at 37° C. in an atmosphere of 5% CO2 in air. The cells were routinely subcultured twice weekly by trypsin-EDTA treatment. The cells growing in an exponential growth phase were harvested and counted for tumor inoculation.
Each mouse was inoculated subcutaneously at the right flank region with H292-HGF tumor cells (2×10^6) in 0.1 ml of PBS with cultrex (1:1) for tumor development. The treatments were started when the mean tumor size reached 139 mm^3. […] The date of tumor cell inoculation was denoted as day 0.
Before commencement of treatment, all animals were weighed and the tumor volumes were measured. Since the tumor volume can affect the effectiveness of any given treatment, mice were assigned into groups using randomized block design based upon their tumor volumes. […] The randomized block design was used to assign experimental animals to groups. First, the experimental animals were divided into homogeneous blocks according to their initial tumor volume. Secondly, within each block, randomization of experimental animals to treatments was conducted.
At the time of routine monitoring, the animals were checked for any effects of tumor growth and treatments on normal behavior, such as mobility, visual estimation of food and water consumption, body weight gain/loss (body weights were measured twice weekly), eye/hair matting and any other abnormal effect.
The endpoint was whether tumor growth can be delayed or tumor bearing mice can be cured. Tumor size was measured twice weekly in two dimensions using a caliper, and the volume was expressed in mm^3 using the formula: V=0.5 a×b^2 where a and b are the long and short diameters of the tumor, respectively. The tumor size was then used for calculations of both T-C and T/C values. T-C was calculated with T as the time (in days) required for the mean tumor size of the treatment group to reach 1000 mm^3, and C was the time (in days) for the mean tumor size of the control group to reach the same size. The T/C value (in percent) was an indication of antitumor efficacy; T and C were the mean tumor volume of the treated and control groups, respectively, on a given day. Complete tumor regression (CR) is defined as tumors that are reduced to below the limit of palpation (62.5 mm^3). Partial tumor regression (PR) is defined as tumors that are reduced from initial tumor volume. A minimum duration of CR or PR in 3 or more successive tumor measurements is required for a CP or PR to be considered durable.
Animals for which the body weight loss exceeded 20%, or for which the mean tumor size of the group exceeds 2000 mm^3 were euthanized. The study was terminated after two weeks of observation after the final dose.
Statistical analyses of difference in tumor volume among the groups were evaluated using a one-way ANOVA followed by individual comparisons using Games-Howell (equal variance not assumed). All data were analyzed using SPSS 18.0. p<0.05 was considered to be statistically significant.

c-Met-Fc fusion protein = molecular target: T1, c-Met-Fc fusion protein (Homo sapiens, UniProt P08581); assay: c-Met-Fc affinity by surface plasmon resonance (ProteOn); format: binding; settings: serine mutants of A3 in the context of ECB15, SPR
T1 construct: recombinant EGFR and/or c-Met extracellular domain was further analyzed by surface Plasmon resonance
T1 sequence (P08581 25-932 limits assumed): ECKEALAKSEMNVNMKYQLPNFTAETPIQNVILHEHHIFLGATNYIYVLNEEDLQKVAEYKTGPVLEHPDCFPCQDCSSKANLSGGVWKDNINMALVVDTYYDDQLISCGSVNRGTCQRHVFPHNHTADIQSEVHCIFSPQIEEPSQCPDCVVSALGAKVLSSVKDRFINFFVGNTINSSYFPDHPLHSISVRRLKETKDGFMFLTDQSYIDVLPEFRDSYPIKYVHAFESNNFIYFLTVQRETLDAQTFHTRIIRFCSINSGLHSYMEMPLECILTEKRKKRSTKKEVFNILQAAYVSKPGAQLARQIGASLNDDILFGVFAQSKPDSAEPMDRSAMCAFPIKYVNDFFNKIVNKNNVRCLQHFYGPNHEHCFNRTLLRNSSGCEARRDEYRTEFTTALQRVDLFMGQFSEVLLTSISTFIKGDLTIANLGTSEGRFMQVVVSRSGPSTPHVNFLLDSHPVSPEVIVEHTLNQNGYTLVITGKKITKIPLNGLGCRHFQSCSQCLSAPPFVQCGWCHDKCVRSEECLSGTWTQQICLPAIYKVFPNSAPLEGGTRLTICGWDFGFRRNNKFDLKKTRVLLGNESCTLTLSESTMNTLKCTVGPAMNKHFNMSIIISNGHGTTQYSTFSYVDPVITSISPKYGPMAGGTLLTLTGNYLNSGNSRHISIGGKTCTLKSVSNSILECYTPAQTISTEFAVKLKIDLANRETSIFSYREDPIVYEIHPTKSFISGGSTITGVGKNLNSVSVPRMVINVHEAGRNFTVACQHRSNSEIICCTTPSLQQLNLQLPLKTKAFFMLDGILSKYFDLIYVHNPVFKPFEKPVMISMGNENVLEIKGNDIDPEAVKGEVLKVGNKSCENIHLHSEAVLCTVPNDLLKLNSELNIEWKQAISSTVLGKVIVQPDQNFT

NCI-H1975 cell line = assay: Inhibition of growth of NCI-H1975 cell line (EGFR L858R; T790M); format: cell-based, human; settings: NCI-H1975, mutation T790M
Method: Inhibition of human tumor cell growth was assessed in standard attachment culture as described in Examples 3 or 6, or in low attachment conditions.

B1: P114AR7P93-H9: c-Met-binding FN3 domain, SEQ ID NO: 40 (protein)
chain: LPAPKNLVVSRVTEDSARLSWTAPDAAFDSFWIRYFEFLGSGEAIVLTVPGSERSYDLTGLKPGTEYVVQIIGVKGGHISLPLSAIFTT
modifications: c-Met binding FN3 domain
Thermal Stability (Tm) [1]: 88.2 C.

B2: P114AR7P95-G7: c-Met-binding FN3 domain, SEQ ID NO: 48 (protein)
chain: LPAPKNLVVSRVTEDSARLSWTAPDAAFDSFWIRYFELLSTGEAIVLTVPGSERSYDLTGLKPGTEYVVNIMGVKGGSISPPLSAIFTT
modifications: c-Met binding FN3 domain
Thermal Stability (Tm) [1]: 87.2 C.

B3: P114AR7P95-H8: c-Met-binding FN3 domain, SEQ ID NO: 49 (protein)
chain: LPAPKNLVVSRVTEDSARLSWTAPDAAFDSFWIRYFEFVSKGEAIVLTVPGSERSYDLTGLKPGTEYVVNIMGVKGGSISPPLSAIFTT
modifications: c-Met binding FN3 domain
Thermal Stability (Tm) [1]: 83 C.

B4: P114AR7P94-A3: c-Met-binding FN3 domain, SEQ ID NO: 41 (protein)
chain: LPAPKNLVVSRVTEDSARLSWTAPDAAFDSFWIRYFEFLGSGEAIVLTVPGSERSYDLTGLKPGTEYVVNIMGVKGGKISPPLSAIFTT
modifications: c-Met binding FN3 domain
Thermal Stability (Tm) [1]: 86.2 C.

B5: P114AR7P95-F10: c-Met-binding FN3 domain, SEQ ID NO: 47 (protein)
chain: LPAPKNLVVSRVTEDSARLSWTAPDAAFDSFWIRYFEFTTAGEAIVLTVPGSERSYDLTGLKPGTEYVVNIMGVKGGSISPPLSAIFTT
modifications: c-Met binding FN3 domain
Thermal Stability (Tm) [1]: 85.2 C.

B6: P114AR5P74-A5: c-Met-binding FN3 domain, SEQ ID NO: 32 (protein)
chain: LPAPKNLVVSRVTEDSARLSWTAPDAAFDSFWIRYDEVVVGGEAIVLTVPGSERSYDLTGLKPGTEYYVNILGVKGGSISVPLSAIFTT
modifications: c-Met binding FN3 domain
Thermal Stability (Tm) [1]: 74.1 C.

B7: P114AR7P95-D4: c-Met-binding FN3 domain, SEQ ID NO: 45 (protein)
chain: LPAPKNLVVSRVTEDSARLSWTAPDAAFDSFWIRYFEFLGSGEAIVLTVPGSERSYDLTGLKPGTEYVVQILGVKGGYISIPLSAIFTT
modifications: c-Met binding FN3 domain
Thermal Stability (Tm) [1]: 85.3 C.

B8: P114AR7P92-F6: c-Met-binding FN3 domain, SEQ ID NO: 35 (protein)
chain: LPAPKNLVVSRVTEDSARLSWTAPDAAFDSFWIRYFEFLGSGEAIVLTVPGSERSYDLTGLKPGTEYVVNILGVKGGGLSVPLSAIFTT
modifications: c-Met binding FN3 domain
Thermal Stability (Tm) [1]: 76.8 C.

B9: P114AR7P94-E5: c-Met-binding FN3 domain, SEQ ID NO: 42 (protein)
chain: LPAPKNLVVSRVTEDSARLSWTAPDAAFDSFWIRYFEFLGSGEAIVLTVPGSERSYDLTGLKPGTEYAVNIMGVKGGRVSVPLSAIFTT
modifications: c-Met binding FN3 domain
Thermal Stability (Tm) [1]: 80 C.

B10: ECB39: bispecific linked to albumin binding domain, SEQ ID NO: 121; medium EGFR / high c-Met affinity (protein)
chain: MLPAPKNLVVSEVTEDSARLSWADPHGFYDSFLIQYQESEKVGEAIVLTVPGSERSYDLTGLKPGTEYTVSIYGVHNVYKDTNMRGLPLSAIFTTAPAPAPAPAPLPAPKNLVVSRVTEDSARLSWTAPDAAFDSFWIRYFEFLGSGEAIVLTVPGSERSYDLTGLKPGTEYVVNIMGVKGGKISPPLSAIFTTAPAPAPAPAPLAEAKVLANRELDKYGVSDYYKNLINNAKTVEGVKALLDEILAALP
modifications: Bispecific EGFR/c-Met binding molecule
tumor growth inhibition (in words) [2]: showed the most efficacy

B11: ECB18: bispecific linked to albumin binding domain, SEQ ID NO: 118; high EGFR / medium c-Met affinity (protein)
chain: MLPAPKNLVVSEVTEDSARLSWDDPWAFYESFLIQYQESEKVGEAIVLTVPGSERSYDLTGLKPGTEYTVSIYGVHNVYKDTNMRGLPLSAIFTTAPAPAPAPAPLPAPKNLVVSRVTEDSARLSWTAPDAAFDSFWIRYDEVVVGGEAIVLTVPGSERSYDLTGLKPGTEYYVNILGVKGGSISVPLSAIFTTAPAPAPAPAPLAEAKVLANRELDKYGVSDYYKNLINNAKTVEGVKALLDEILAALP
modifications: Bispecific EGFR/c-Met binding molecule
tumor growth inhibition (in words) [2]: delay in tumor growth

B12: ECB38: bispecific linked to albumin binding domain, SEQ ID NO: 120; high EGFR / high c-Met affinity; test article of Tables 14-16 (protein)
chain: MLPAPKNLVVSEVTEDSARLSWDDPWAFYESFLIQYQESEKVGEAIVLTVPGSERSYDLTGLKPGTEYTVSIYGVHNVYKDTNMRGLPLSAIFTTAPAPAPAPAPLPAPKNLVVSRVTEDSARLSWTAPDAAFDSFWIRYFEFLGSGEAIVLTVPGSERSYDLTGLKPGTEYVVNIMGVKGGKISPPLSAIFTTAPAPAPAPAPLAEAKVLANRELDKYGVSDYYKNLINNAKTVEGVKALLDEILAALP
modifications: Bispecific EGFR/c-Met binding molecule
tumor growth inhibition (in words) [2]: showed the most efficacy
treatment tolerated ([3]; 25 mg/kg, 3 times/week x 3 weeks): 7 out of 10
Tumor volume ([3]; day 7 (start of treatment), mean ± SEM, doses as in column head): 137 ± 7 mm^3
Tumor volume ([3]; day 9, mean ± SEM): 142 ± 7 mm^3
Tumor volume ([3]; day 13, mean ± SEM): 83 ± 6 mm^3
Tumor volume ([3]; day 16, mean ± SEM): 44 ± 7 mm^3
Tumor volume ([3]; day 20, mean ± SEM): 30 ± 6 mm^3
Tumor volume ([3]; day 23, mean ± SEM): 23 ± 7 mm^3
Tumor Size at day 23 ([3]; day 23 after tumor inoculation, doses given with treatment, listed as bispecific EGFR/c-Met molecule): 23 mm^3 and 23 ± 7 mm^3
Tumor volume ([3]; day 27, mean ± SEM): 21 ± 5 mm^3
Tumor volume ([3]; day 30, mean ± SEM): 23 ± 6 mm^3
antitumor activity (in words) ([3]; doses as in Table 14, listed as bispecific EGFR/c-Met molecule): complete tumor regression (CR) in all mice; also recorded: complete response
mice euthanized when BWL>20% during the treatment period ([3]; mouse, in vivo): 3 mice
tolerability / body weight loss (in words) ([3]; mouse, in vivo): Slight toxicity

B13: ECB15: bispecific, SEQ ID NO: 57 (145 in Table 19): P54AR4-83v2-(AP)5-P114AR7P94-A3 (protein)
chain: MLPAPKNLVVSEVTEDSARLSWDDPWAFYESFLIQYQESEKVGEAIVLTVPGSERSYDLTGLKPGTEYTVSIYGVHNVYKDTNMRGLPLSAIFTTAPAPAPAPAPLPAPKNLVVSRVTEDSARLSWTAPDAAFDSFWIRYFEFLGSGEAIVLTVPGSERSYDLTGLKPGTEYVVNIMGVKGGKISPPLSAIFTT
modifications: bispecific EGFR/cMet binding molecule
ka (c-Met-Fc fusion protein): 351000 M⁻¹ s⁻¹
kd (c-Met-Fc fusion protein): 0.000133 s⁻¹
inhibition of growth (in words) (NCI-H1975 cell line): inhibited growth of NCI-H1975 cell line
